Source: paper PMC9643438

Tests used:
Cys290 = Cys290 (UniProt position 290, QETVDCLKKFN); test: chemical modification (iodoacetamide alkylation) with mass spectrometry readout; conditions: purified, reduced, native CaMKIIdelta; presence of Ca2+/calmodulin not stated
Cys273 = Cys273 (UniProt position 273, KHPWICQRSTV); test: as above; conditions: purified, reduced, native CaMKIIdelta; presence of Ca2+/calmodulin not stated

Row | Substance | pKa (Cys290) | pKa (Cys273)
1 | Calcium/calmodulin-dependent protein kinase II delta (CaMKIIdelta), 'Cys290' mutant (Homo sapiens; C7S;C273S;C481S) | 9.7 | –
2 | Calcium/calmodulin-dependent protein kinase II delta (CaMKIIdelta), 'Cys273' mutant (Homo sapiens; C7S;C290S;C481S) | – | 7.4
